Results as given in patent US20240425876A1 (CHIGENOVO, published 2024).

Target: the molecule itself
Assay: Western blot of transfected HEK293 cells
Description: After 48 hours, the cells were lysed. The C-terminal truncated version containing a flag tag in the cells was enriched by using flag antibody (F1804. Sigma)-coupled magnetic beads, and then the presence of the N-terminal truncated version interacting with the C-terminal truncated version was detected by western blot using an HA antibody (AE036, ABclonal).

Protein	binding result
N-terminal truncated version (aa 1-1347) of ABCA4 with an HA tag at its C-terminus (other, Expressed in HEK293 cells from a codon-optimized CDS; tested in cell lysate; also called N1347; not shown: hemagglutinin (HA) tag linked to the C-terminus) MGFVRQIQLLLWKNWTLRKRQKIRFVVELVWPLSLFLVLIWLRNANPLYSHHECHFPNKAMPSAGMLPWLQGIFCNVNNPCFQSPTPGESPGIVSNYNNSILARVYRDFQELLMNAPESQHLGRIWTELHILSQFMDTLRTHPERIAGRGIRIRDILKDEETLTLFLIKNIGLSDSVVYLLINSQVRPEQFAHGVPDLALKDIACSEALLERFIIFSQRRGAKTVRYALCSLSQGTLQWIEDTLYANVDFFKLFRVLPTLLDSRSQGINLRSWGGILSDMSPRIQEFIHRPSMQDLLWVTRPLMQNGGPETFTKLMGILSDLLCGYPEGGGSRVLSFNWYEDNNYKAFLGIDSTRKDPIYSYDRRTTSFCNALIQSLESNPLTKIAWRAAKPLLMGKILYTPDSPAARRILKNANSTFEELEHVRKLVKAWEEVGPQIWYFFDNSTQMNMIRDTLGNPTVKDFLNRQLGEEGITAEAILNFLYKGPRESQADDMANFDWRDIFNITDRTLRLVNQYLECLVLDKFESYNDETQLTQRALSLLEENMFWAGVVFPDMYPWTSSLPPHVKYKIRMDIDVVEKTNKIKDRYWDSGPRADPVEDFRYIWGGFAYLQDMVEQGITRSQVQAEAPVGIYLQQMPYPCFVDDSFMIILNRCFPIFMVLAWIYSVSMTVKSIVLEKELRLKETLKNQGVSNAVIWCTWFLDSFSIMSMSIFLLTIFIMHGRILHYSDPFILFLFLLAFSTATIMLCFLLSTFFSKASLAAACSGVIYFTLYLPHILCFAWQDRMTAELKKAVSLLSPVAFGFGTEYLVRFEEQGLGLQWSNIGNSPTEGDEFSFLLSMQMMLLDAAVYGLLAWYLDQVFPGDYGTPLPWYFLLQESYWLGGEGCSTREERALEKTEPLTEETEDPEHPEGIHDSFFEREHPGWVPGVCVKNLVKIFEPCGRPAVDRLNITFYENQITAFLGHNGAGKTTTLSILTGLLPPTSGTVLVGGRDIETSLDAVRQSLGMCPQHNILFHHLTVAEHMLFYAQLKGKSQEEAQLEMEAMLEDTGLHHKRNEEAQDLSGGMQRKLSVAIAFVGDAKVVILDEPTSGVDPYSRRSIWDLLLKYRSGRTIIMSTHHMDEADLLGDRIAIIAQGRLYCSGTPLFLKNCFGTGLYLTLVRKMKNIQSQRKGSEGTCSCSSKGFSTTCPAHVDDLTPEQVLDGDVNELMDVVLHHVPEAKLVECIGQELIFLLPNKNFKHRAYASLFRELEETLADLGLSSFGISDTPLEEIFLKVTEDSDSGPLFAGGAQQKRENVNPRHPCLGPREKAGQTPQDSNVCSPGAPAAHPEGQPPPEPECPGPQLNTG	binds
C-terminal truncated version (aa 1348-2273) of ABCA4 with a Flag tag at its C-terminus (other, Expressed in HEK293 cells; captured on flag antibody-coupled magnetic beads; not shown: Flag tag linked to the C-terminus) TQLVLQHVQALLVKRFQHTIRSHKDFLAQIVLPATFVFLALMLSIVIPPFGEYPALTLHPWIYGQQYTFFSMDEPGSEQFTVLADVLLNKPGFGNRCLKEGWLPEYPCGNSTPWKTPSVSPNITQLFQKQKWTQVNPSPSCRCSTREKLTMLPECPEGAGGLPPPQRTQRSTEILQDLTDRNISDFLVKTYPALIRSSLKSKFWVNEQRYGGISIGGKLPVVPITGEALVGFLSDLGRIMNVSGGPITREASKEIPDFLKHLETEDNIKVWFNNKGWHALVSFLNVAHNAILRASLPKDRSPEEYGITVISQPLNLTKEQLSEITVLTTSVDAVVAICVIFSMSFVPASFVLYLIQERVNKSKHLQFISGVSPTTYWVTNFLWDIMNYSVSAGLVVGIFIGFQKKAYTSPENLPALVALLLLYGWAVIPMMYPASFLFDVPSTAYVALSCANLFIGINSSAITFILELFENNRTLLRFNAVLRKLLIVFPHFCLGRGLIDLALSQAVTDVYARFGEEHSANPFHWDLIGKNLFAMVVEGVVYFLLTLLVQRHFFLSQWIAEPTKEPIVDEDDDVAEERQRIITGGNKTDILRLHELTKIYPGTSSPAVDRLCVGVRPGECFGLLGVNGAGKTTTFKMLTGDTTVTSGDATVAGKSILTNISEVHQNMGYCPQFDAIDELLTGREHLYLYARLRGVPAEEIEKVANWSIKSLGLTVYADCLAGTYSGGNKRKLSTAIALIGCPPLVLLDEPTTGMDPQARRMLWNVIVSIIREGRAVVLTSHSMEECEALCTRLAIMVKGAFRCMGTIQHLKSKFGDGYIVTMKIKSPKDDLLPDLNPVEQFFQGNFPGSVQRERHYNMLQFQVSSSSLARIFQLLLSHKDSLLIEEYSVTQTTLDQVFVNFAKQQTESHDLPLHPRAAGASRQAQD	binds
